Data: publication PMC8950220, “Impact of Fluorinated Ionic Liquids on Human Phenylalanine Hydroxylase—A Potential Drug Delivery System” (Nanomaterials, 2022)

Key:
[1] = target: the molecule itself; assay: SEC; Superdex 200 Increase 10/300, 20 mM HEPES pH 7.0, 200 mM NaCl, 277.15 K; tetramer fraction isolated
[2] = target: the molecule itself; assay: native gel or EMSA; blue native PAGE, NativePAGE 4-16% Bis-Tris gel; hPAH with 0-1.2% v/v [N1112(OH)][C4F9SO3], with and without L-Phe
[3] = target: the molecule itself; assay: SAXS; batch mode, 0.9 mg/mL hPAH in 20 mM HEPES pH 7.0, 200 mM NaCl, 0-1.2% v/v [N1112(OH)][C4F9SO3], no L-Phe; volume fractions of oligomers fitted with OLIGOMER

B1: human phenylalanine hydroxylase (enzyme, UniProt P00439 1-452, looked up)
chain: MSTAVLENPGLGRKLSDFGQETSYIEDNCNQNGAISLIFSLKEEVGALAKVLRLFEENDVNLTHIESRPSRLKKDEYEFFTHLDKRSLPALTNIIKILRHDIGATVHELSRDKKKDTVPWFPRTIQELDRFANQILSYGAELDADHPGFKDPVYRARRKQFADIAYNYRHGQPIPRVEYMEEEKKTWGTVFKTLKSLYKTHACYEYNHIFPLLEKYCGFHEDNIPQLEDVSQFLQTCTGFRLRPVAGLLSSRDFLGGLAFRVFHCTQYIRHGSKPMYTPEPDICHELLGHVPLFSDRSFAQFSQEIGLASLGAPDEYIEKLATIYWFTVEFGLCKQGDSIKAYGAGLLSSFGELQYCLSEKPKLLPLELEKTAIQNYTVTEFQPLYYVAESFNDAKEKVRNFAATIPRPFSVRYDPYTQRIEVLDNTQQLKILADSINSEIGILCSALQKIK
notes: human phenylalanine hydroxylase (hPAH), recombinant full-length, each subunit 52 kDa; No step that cleaves the tag is described, and the enzymatic assays name the protein His6-hPAH, so the tag and linker were probably kept; The tetramer fraction from SEC was the starting material of all assays; also called hPAH; His6-hPAH; source: E. coli Top10, purified (Ni-NTA, SEC on Superdex 200 Increase; …)
With B1 the “stoichiometry N” value [1] was 4, the “stoichiometry N” value [2] was 8 and the “stoichiometry N” value [3] was 2.
